{"source": "patent US20100221257A1", "about": "(AstraZeneca / MedImmune, published 2010)", "key": {"[1]": {"target": "T1, human histidine tagged (HIS) IL1RFc fusion protein (human)", "T1 construct": "Biotinylated or cryptate labelled in some assays; also called human HIS IL1RFc; huIL-1R1-Fc", "experiment": "KinExA, FAb equilibrated in solution with IL-1R1-Fc; free FAb captured on IL-1R1 beads", "description": "(§1) Firstly either a monomerised FAb was allowed to come to equilibrium with sIL-1R1-Fc (soluble sIL-1R1-Fc), or the IgG was allowed to come to equilibrium with sIL-1R1 (un-tagged). These equilibrated solutions of the interacting molecules were then analysed using KinExA™. 3200 technology. In brief, for each equilibrated sample, the KinExA™. 3200 instrument automatically packed a fresh column of sIL-1R1 conjugated micro-beads. The sample containing antibody (or FAb fragment), antigen, and Ab/antigen (or FAb/antigen) complex (in Dulbecco's PBS, 1 mg mL⁻¹ bovine serum albumin, 0.02% (w/v) sodium azide) was flowed rapidly (0.25 mL/min) through the column to keep the contact time of the sample with the antigen-beads extremely brief. This rapid contact time ensured that, for high affinity (slowly dissociating) interactions, dissociation of the complex was negligible during this short contact time. Free antibody bound to the IL-1R1-beads. A Cy5™ (cyanine) fluorescently labelled secondary antibody, mouse anti-human IgG (heavy and light chain specific) was then passed through the column. Labelled secondary antibody bound to the antibody bound to the column. A buffer wash removed excess label, leaving fluorescence signal on the bead column directly proportional to the amount of free […] in the original sample. […]"}, "[2]": {"target": "T2, cynomolgus monkey HIS IL1RFc (cynomolgus monkey)", "T2 construct": "also called Cyno his IL1RFc; CynoIL1-R1-Fc", "T2 sequence (chain, as listed by the source limits assumed)": "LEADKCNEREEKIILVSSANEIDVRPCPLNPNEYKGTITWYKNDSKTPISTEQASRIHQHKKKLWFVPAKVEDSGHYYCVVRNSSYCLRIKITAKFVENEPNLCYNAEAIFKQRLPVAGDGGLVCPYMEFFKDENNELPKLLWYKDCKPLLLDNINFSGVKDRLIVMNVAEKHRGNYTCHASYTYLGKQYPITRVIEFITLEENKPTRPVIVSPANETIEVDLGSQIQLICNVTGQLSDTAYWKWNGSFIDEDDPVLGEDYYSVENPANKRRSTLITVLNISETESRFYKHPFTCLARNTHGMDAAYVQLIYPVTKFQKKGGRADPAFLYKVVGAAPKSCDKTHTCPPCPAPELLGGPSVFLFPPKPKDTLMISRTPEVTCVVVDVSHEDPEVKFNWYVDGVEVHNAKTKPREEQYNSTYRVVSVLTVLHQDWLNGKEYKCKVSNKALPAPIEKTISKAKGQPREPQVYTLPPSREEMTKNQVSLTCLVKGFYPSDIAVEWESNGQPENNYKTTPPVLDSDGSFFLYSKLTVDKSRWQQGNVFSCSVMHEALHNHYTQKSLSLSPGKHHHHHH", "experiment": "KinExA, FAb equilibrated in solution with IL-1R1-Fc; free FAb captured on IL-1R1 beads", "description": "as §1"}, "[3]": {"target": "T3, Human sIL-1R1 (R&D Systems), un-tagged (human, UniProt P14778 18-332, limits assumed)", "T3 construct": "Bought; also called soluble human IL-1R1", "T3 sequence (looked up)": "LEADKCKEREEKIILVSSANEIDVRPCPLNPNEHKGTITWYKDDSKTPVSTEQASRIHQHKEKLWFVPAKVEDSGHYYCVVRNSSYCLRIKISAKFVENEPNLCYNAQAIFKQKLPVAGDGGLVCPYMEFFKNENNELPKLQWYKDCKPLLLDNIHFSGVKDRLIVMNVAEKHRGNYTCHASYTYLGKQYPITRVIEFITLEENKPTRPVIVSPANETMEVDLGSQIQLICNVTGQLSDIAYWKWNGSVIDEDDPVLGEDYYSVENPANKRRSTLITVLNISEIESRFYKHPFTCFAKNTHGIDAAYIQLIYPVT", "experiment": "KinExA, IgG equilibrated in solution with un-tagged sIL-1R1; free IgG captured on IL-1R1 beads", "description": "as §1"}, "[4]": {"target": "T4, human IL-1R1, endogenous on human cells (HeLa cells; whole blood) (human, UniProt P14778 18-569)", "T4 sequence (looked up)": "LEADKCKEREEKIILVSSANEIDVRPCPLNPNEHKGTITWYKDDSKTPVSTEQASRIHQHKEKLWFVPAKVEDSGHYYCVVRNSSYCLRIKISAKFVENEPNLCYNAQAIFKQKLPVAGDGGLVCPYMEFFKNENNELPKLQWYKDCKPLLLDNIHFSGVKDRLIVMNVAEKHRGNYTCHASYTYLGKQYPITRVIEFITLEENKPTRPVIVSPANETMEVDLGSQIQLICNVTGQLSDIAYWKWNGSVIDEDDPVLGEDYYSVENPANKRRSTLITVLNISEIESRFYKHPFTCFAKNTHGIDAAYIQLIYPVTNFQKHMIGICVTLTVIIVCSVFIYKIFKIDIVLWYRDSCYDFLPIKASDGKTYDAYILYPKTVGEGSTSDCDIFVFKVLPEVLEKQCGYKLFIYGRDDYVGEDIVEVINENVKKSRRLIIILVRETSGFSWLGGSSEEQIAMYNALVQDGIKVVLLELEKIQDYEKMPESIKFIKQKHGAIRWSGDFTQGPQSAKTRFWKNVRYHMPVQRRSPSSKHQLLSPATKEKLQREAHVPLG", "experiment": "cell-based or functional assay"}, "[5]": {"target": "T1, human histidine tagged (HIS) IL1RFc …", "experiment": "HTRF receptor-ligand assay, scFv inhibiting HIS FLAG IL-1β binding to human HIS IL1RFc", "description": "(§2) After pre-incubation of the assay plates, 5 μl of 4 nM HIS FLAG IL1 beta was added. This was followed by 5 μl of 20 nM anti-FLAG IgG labelled with XL665 (CIS Bio international 61FG2XLB) and 5 μl of 3.2 nM anti-human Fc IgG labelled with cryptate (CIS Bio International 61HFCKLB). All dilutions were performed in phosphate buffered saline (PBS) containing 0.4 M potassium fluoride and 0.1% BSA (assay buffer).\n(§3) Purified scFv from positive clones identified from screening were tested in either of the above receptor-ligand HTRF® assays for inhibition of binding of human HIS FLAG tagged IL1 beta to human HIS IL1RFc. A skilled person could modify these assays to test IgG or other inhibitor formats. A titration of scFv concentrations was used in order to establish the clone potency as measured by IC₅₀ values in the assay. All dilutions were carried out in assay buffer. 5 μl of a titration of purified scFv sample was added to a 384 well low volume assay plate (Costar 3676). This was then followed by addition of 2 nM human HIS IL1RFc (when using in house HIS IL1 beta) or 8 nM HIS IL1RFc (when using Alexis source IL1 beta) to a volume of 20 μl. Assay plates were then sealed and incubated at room temperature in dark for 1 hour. The subsequent addition steps were carried out as exactly as described for crude scFv containing periplasmic extracts."}, "[6]": {"target": "Antibody 6 (Eu3+ cryptate labelled, Example 5)", "experiment": "HTRF competition: unlabelled test protein against biotin labelled human IL-1R1/Fc binding to cryptate labelled antibody", "description": "(§4) Antibody was cryptate labelled with Eu³′ Cryptate labelling kit according to the manufacturer's instructions (CisBio International Cat No. 62EUSPEA) and IL-1R1/Fc (SEQ ID NO: 134, see Material and Methods) was Biotin labelled with EZ Link Sulfo-NHS-Biotin (Perbio Cat No. 21335) according to the manufacturer's instructions. Assay conditions were 0.25 nM Cryptate labelled antibody, 0.3 nM biotin labelled IL-1R1/Fc, 2.5 nM streptavidin XL^{ent!} (CisBio International Cat. No. 611SAXLB) in 1×D-PBS, 0.1% BSA, 0.4M potassium fluoride in a total volume of […] in a 384 well shallow well costar plate (3676). To the assay a dilution series (from maximum of 100 nM to 0.0017 nM) of test proteins was added and the assay incubated for 3 hours at room temperature. FRET signal was detected using a PerkinElmer EnVision plate reader using a 320 nm excitation filter and 620 nm and 665 nm emission filters. Results were calculated from the 665/620 ratio as a percentage of specific binding (signal with no competitor antigen). Results were analysed with Prism (GraphPad Software) using the sigmoidal dose response model.\nAntibody binding of chimeric molecules was tested in an HTRF (Homogeneous Time Resolved Fluorescence) competition assay. Molecules which bound antibody at the same paratope as human IL-1R1 inhibited the binding interaction, leading to a reduction in signal. From inhibition curves IC₅₀ values for human IL-1R1, mouse IL-1R1 and chimeric molecules were calculated (Table 12). […] Chimeras that gave similar IC₅₀ values to native human IL-1R1 still contained the epitope."}, "[7]": {"target": "Antibody 6 (Eu3+ cryptate labelled, Example 5)", "experiment": "HTRF competition assay, against human IL-1R1 as reference", "description": "as §4\nAntibody binding of chimeric molecules was tested in an HTRF (Homogeneous Time Resolved Fluorescence) competition assay. […] From inhibition curves IC₅₀ values for human IL-1R1, mouse IL-1R1 and chimeric molecules were calculated (Table 12). […]"}, "[8]": {"target": "T1, human histidine tagged (HIS) IL1RFc …", "experiment": "HTRF receptor-ligand assay, scFv inhibiting HIS FLAG IL-1β binding to human HIS IL1RFc; incomplete inhibition curve, value estimated; incomplete inhibition curve; IC50 estimated", "description": "as §2, §3"}}, "data": [{"binder": "Antibody 6 FAb (Fab, V domains shown, Monomeric FAb made by papain digestion of Antibody 6 IgG1TM; also called anti-IL-1R1FAb; monomerised FAb) VH: not shown VL: QSVLTQPPSVSGAPGQRVTISCTGSSSNIGAGYDVHWYQQLPGTAPKLLIYGDTHRPSGVPDRFSGSKSGTSASLVIAGLQAEDEADYYCQSYDTVRLHHVFGGGTKLTVL", "values": [{"measurement": "Kd", "setting": "[1]", "result": 0.0025, "unit": "nM"}, {"measurement": "Kd", "setting": "[2]", "result": 0.0028, "unit": "nM"}]}, {"binder": "Antibody 6 IgG1TM (Triple Mutant, 234F, 235E and 331S) (antibody, V domains shown, IgG1 with Fc triple mutant 234F, 235E, 331S (EU index)) VH: not shown VL: QSVLTQPPSVSGAPGQRVTISCTGSSSNIGAGYDVHWYQQLPGTAPKLLIYGDTHRPSGVPDRFSGSKSGTSASLVIAGLQAEDEADYYCQSYDTVRLHHVFGGGTKLTVL", "values": [{"measurement": "Kd", "setting": "[3]", "result": 0.00305, "unit": "nM"}, {"measurement": "Mean IC50, whole blood assay, IL-1beta induced release of IL-6", "setting": "[4]", "result": 311000, "unit": "nM"}]}, {"binder": "Antibody 4 scFv (scFv, V domains shown, Tested as purified scFv; also called KENB026 or KENB061 (parent, not resolved)) VH: not shown VL: QSVLTQPPSVSGAPGQRVTISCTGSSSNIGAGYDVHWYQQLPGTAPKLLIYGDTHRPSGVPDRFSGSKSGTSASLVIAGLQAEDEADYYCQSYDTSLSGSLFGGGTKLTVL", "values": [{"measurement": "IC50", "setting": "[5]", "result": 22.5, "unit": "nM"}]}, {"binder": "MoD2c IL1R1 (Fc fusion, human;mouse, UniProt P14778 18-177, looked up, not shown: a dimerising Fc or GST, also called chimera without loop d2-e2) LEADKCKEREEKIILVSSANEIDVRPCPLNPNEHKGTITWYKDDSKTPVSTEQASRIHQHKEKLWFVPAKVEDSGHYYCVVRNSSYCLRIKISAKFVENEPNLCYNAQAIFKQKLPVAGDGGLVCPYMEFFKNENNELPKLQWYKDCKPLLLDNIHFSGVKDKLIVMNVAEKHRGNYTCHASYTYLGKQYPITRVIEFITLEENKPTRPVIVSPANETMEVDLGSQIQLICNVTGQLSDIAYWKWNGSVIDEDDPVLGEDYYSVENPANKRRSTLITVLNISEIESRFYKHPFTCFAKNTHGIDAAYIQLIYPVTNFQK", "values": [{"measurement": "IC50", "setting": "[6]", "result": 0.637, "unit": "nM"}, {"measurement": "fold higher IC50 than human IL-1R1", "setting": "[7]", "result": "> 3", "unit": "fold"}]}, {"binder": "MoD2a IL1R1 (Fc fusion, human;mouse, UniProt P14778 18-122, looked up, not shown: a dimerising Fc or GST, range 1-122;range 126-137;range 135-336; also called chimera without human beta strand a2) LEADKCKEREEKIILVSSANEIDVRPCPLNPNEHKGTITWYKDDSKTPVSTEQASRIHQHKEKLWFVPAKVEDSGHYYCVVRNSSYCLRIKISAKFVENEPNLCYSTQATFPQRLHIAGDGGLVCPYMEFFKNENNELPKLQWYKDCKPLLLDNIHFSGVKDRLIVMNVAEKHRGNYTCHASYTYLGKQYPITRVIEFITLEENKPTRPVIVSPANETMEVDLGSQIQLICNVTGQLSDIAYWKWNGSVIDEDDPVLGEDYYSVENPANKRRSTLITVLNISEIESRFYKHPFTCFAKNTHGIDAAYIQLIYPVTNFQK", "values": [{"measurement": "IC50", "setting": "[6]", "result": 4.6, "unit": "nM"}, {"measurement": "fold higher IC50 than human IL1R1", "setting": "[7]", "result": 26, "unit": "fold"}]}, {"binder": "Antibody 1 scFv (scFv, V domains shown, Tested as purified scFv; also called KENB026 or KENB061 (parent, not resolved)) VH: not shown VL: QAVLTQPSSASGTPGQRVTISCSGSSSNIGSNYVFWYQQFPGTAPQLLVKWNNQRPSGVPDRFSGSKSGTSASLAISGLRSEDEADYYCAAWDDSLSGLVFGGGTKLTVL", "values": [{"measurement": "IC50", "setting": "[8]", "result": "~225", "unit": "nM"}]}]}
